Measured values: patent US20250326863A1

Target: human IgG
Test: bio-layer interferometry

Kd: 100 nM
B1: recombinant monoclonal low affinity rheumatoid factor RF^low (human IgM; RC1 of Youngblood et al. 1994) (antibody, V domains shown)
VH: QVQLVQSGGGVVQPGRSLRLSCAASGFTFSSYAMHWVRQAPGKGLEWVAVISYDGSNKYYAESVKGRFTISRDNSKNTLYLRMNSLRTEETAVYYCARDGDVGSYGPGTYYPIDYWGQGTLVSVSP
VL: EIVLTQSPATLSLSPGERATLSCRASQSVSSYLAWYQEKPGTAPRLLIYDASNRATGIPARFSGSGSGTDFTLTISSLEPEDFAVYYCQQRRNWPLTFGPGTKVDIK
